Data set [1] addresses T1, FcγRIIIa (human, UniProt P08637). Nature of the data set: ELISA, immune complexes.
The target of a further data set is T2, FcγRIIa (human, UniProt P12318).
T2 chain: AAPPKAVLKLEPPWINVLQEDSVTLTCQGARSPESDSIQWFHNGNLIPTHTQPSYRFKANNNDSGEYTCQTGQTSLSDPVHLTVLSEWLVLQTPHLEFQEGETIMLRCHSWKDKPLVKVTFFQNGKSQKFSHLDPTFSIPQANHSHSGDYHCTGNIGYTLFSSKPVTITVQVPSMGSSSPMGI
Nature of the data set: SPR, pH 7.4.

Data set [2] concerns the target T3, FcγRIIIb (human, UniProt O75015).
T3 chain: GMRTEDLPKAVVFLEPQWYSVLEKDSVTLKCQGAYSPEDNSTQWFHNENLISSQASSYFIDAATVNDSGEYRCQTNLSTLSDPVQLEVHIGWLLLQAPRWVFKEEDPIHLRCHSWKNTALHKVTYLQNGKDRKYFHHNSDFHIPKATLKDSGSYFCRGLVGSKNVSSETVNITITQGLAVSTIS
Nature of the data set: SPR, pH 7.4.

The target in data set [3] is T4, FcγRI (human, UniProt P12314).
T4 chain: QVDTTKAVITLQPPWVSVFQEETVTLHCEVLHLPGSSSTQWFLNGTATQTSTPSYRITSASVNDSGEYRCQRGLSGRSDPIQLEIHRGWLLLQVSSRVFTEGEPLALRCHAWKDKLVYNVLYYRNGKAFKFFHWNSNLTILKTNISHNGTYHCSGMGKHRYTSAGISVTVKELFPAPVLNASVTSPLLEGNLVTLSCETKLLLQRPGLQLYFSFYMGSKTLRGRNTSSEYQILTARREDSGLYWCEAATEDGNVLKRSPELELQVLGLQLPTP
Nature of the data set: ELISA, immune complexes.

For a further data set, the target named is T5, FcγRIIb/c (human, UniProt P31994).
T5 chain: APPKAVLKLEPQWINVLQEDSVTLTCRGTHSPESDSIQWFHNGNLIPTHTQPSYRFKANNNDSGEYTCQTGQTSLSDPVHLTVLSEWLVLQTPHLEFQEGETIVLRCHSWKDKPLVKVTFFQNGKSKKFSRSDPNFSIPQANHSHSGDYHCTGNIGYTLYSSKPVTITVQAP
The data set can be described thus: SPR, pH 7.4.

Data set [4] deals with T3, FcγRIIIb. Nature of the data set: ELISA, immune complexes.
Data set [5] deals with the molecule itself. The data set can be described thus: SPR, pH 7.4, self-association, GMP batch.
For data set [6], the target named is T4, FcγRI. Nature of the data set: SPR, pH 7.4.
Data set [7] concerns the molecule itself. Nature of the data set: SPR, pH 7.4, self-association, engineering batch.
For data set [8], the target named is T1, FcγRIIIa. The data set can be described thus: SPR, pH 7.4.

T1 sequence (P08637 17-208): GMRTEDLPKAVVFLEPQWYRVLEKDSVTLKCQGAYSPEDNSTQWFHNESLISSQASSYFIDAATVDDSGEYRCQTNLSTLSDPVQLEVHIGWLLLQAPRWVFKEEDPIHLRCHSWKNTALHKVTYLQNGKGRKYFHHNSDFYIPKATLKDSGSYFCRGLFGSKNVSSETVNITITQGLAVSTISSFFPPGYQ

B1: BNJ441 (full length) (antibody)
chain 1: QVQLVQSGAEVKKPGASVKVSCKASGHIFSNYWIQWVRQAPGQGLEWMGEILPGSGHTEYTENFKDRVTMTRDTSTSTVYMELSSLRSEDTAVYYCARYFFGSSPNWYFDVWGQGTLVTVSSASTKGPSVFPLAPCSRSTSESTAALGCLVKDYFPEPVTVSWNSGALTSGVHTFPAVLQSSGLYSLSSVVTVPSSNFGTQTYTCNVDHKPSNTKVDKTVERKCCVECPPCPAPPVAGPSVFLFPPKPKDTLMISRTPEVTCVVVDVSQEDPEVQFNWYVDGVEVHNAKTKPREEQFNSTYRVVSVLTVLHQDWLNGKEYKCKVSNKGLPSSIEKTISKAKGQPREPQVYTLPPSQEEMTKNQVSLTCLVKGFYPSDIAVEWESNGQPENNYKTTPPVLDSDGSFFLYSRLTVDKSRWQEGNVFSCSVLHEALHSHYTQKSLSLSLGK
chain 2: DIQMTQSPSSLSASVGDRVTITCGASENIYGALNWYQQKPGKAPKLLIYGATNLADGVPSRFSGSGSGTDFTLTISSLQPEDFATYYCQNVLNTPLTFGQGTKVEIKRTVAAPSVFIFPPSDEQLKSGTASVVCLLNNFYPREAKVQWKVDNALQSGNSQESVTEQDSKDSTYSLSSTLTLSKADYEKHKVYACEVTHQGLSSPVTKSFNRGEC
For B1, the binding result with FcγRIIIa [1], with FcγRI [3] and in the data set with FcγRIIIb [4] was “no binding” throughout. Further, the Kd came out at 2.31 µM with FcγRIIa; 3.33 µM in the data set with FcγRIIIb [2]; 8.09 µM with FcγRIIb/c; 270 µM in [5]; 3.75 µM with FcγRI [6]; 7100 µM in data set [7]. This molecule also showed a Kd with FcγRIIIa [8] of 7.23 µM.
